Series [1] has as its system O=C1C=CC(=O)C=C1. Put plainly: steady-state kinetics, NADPH consumption, Michaelis-Menten fit. The class given is biochemical, Penicillium steckii. The following applies: co-substrate NADPH. From the text: steady-state kinetics, NADPH consumption, Michaelis-Menten fit on PsOYE4
The target of series [2] is PsOYE2, Class III OYE-type ene-reductase from Penicillium steckii (Penicillium steckii). Put plainly: DLS; PsOYE2 in solution; conditions not shown.
For series [3] the target is unchanged. The experiment in a line: crystal structure; PsOYE2 without any tag, FMN bound; monoclinic space group P2(1), four dimers in the asymmetric unit; 2.3 Å; interface analysed with PISA.
For series [4] the target is unchanged. Put plainly: SEC; PsOYE2 in solution; conditions not shown.
Substrate in series [5]: NC(=O)C1=CN([C@@H]2O[C@H](COP(=O)(O)OP(=O)(O)OC[C@H]3O[C@@H](n4cnc5c(N)ncnc54)[C@H](OP(=O)(O)O)[C@@H]3O)[C@@H](O)[C@H]2O)C=CC1
The experiment in a line: steady-state kinetics, NADPH consumption, Michaelis-Menten fit. The following applies: co-substrate p-benzoquinone. Format: biochemical, Penicillium steckii. The source says:
(§1) steady-state kinetics, NADPH consumption, Michaelis-Menten fit on PsOYE1

Substrate in series [6]: O=C1C=CC(=O)C=C1
The description is as above. The following applies: co-substrate NADPH. Format: biochemical, Penicillium steckii.
Description: as §1
The source holds these as a separate data set.

Substrate in series [7]: NC(=O)C1=CN([C@@H]2O[C@H](COP(=O)(O)OP(=O)(O)OC[C@H]3O[C@@H](n4cnc5c(N)ncnc54)[C@H](OP(=O)(O)O)[C@@H]3O)[C@@H](O)[C@H]2O)C=CC1
The description is as above. The class given is biochemical, Penicillium steckii. The following applies: co-substrate p-benzoquinone. From the text:
(§2) steady-state kinetics, NADPH consumption, Michaelis-Menten fit on PsOYE5
This is another data set of the same source.

Substrate in series [8]: O=C1C=CC(=O)C=C1
The series is described as above. Format: biochemical, Penicillium steckii. The following applies: co-substrate NADPH.
Description: as §2
This is another data set of the same source.

Substrate in series [9]: NC(=O)C1=CN([C@@H]2O[C@H](COP(=O)(O)OP(=O)(O)OC[C@H]3O[C@@H](n4cnc5c(N)ncnc54)[C@H](OP(=O)(O)O)[C@@H]3O)[C@@H](O)[C@H]2O)C=CC1
Described as above. Format: biochemical, Penicillium steckii. The conditions noted are these: co-substrate p-benzoquinone. From the text:
(§3) steady-state kinetics, NADPH consumption, Michaelis-Menten fit on PsOYE2
The source holds these as a separate data set.

Substrate in series [10]: O=C1C=CC(=O)C=C1
The series is described as above. The following applies: co-substrate NADPH. Format: biochemical, Penicillium steckii.
Description: as §3
This is another data set of the same source.

Substrate in series [11]: NC(=O)C1=CN([C@@H]2O[C@H](COP(=O)(O)OP(=O)(O)OC[C@H]3O[C@@H](n4cnc5c(N)ncnc54)[C@H](OP(=O)(O)O)[C@@H]3O)[C@@H](O)[C@H]2O)C=CC1
The series is described as above. The following applies: co-substrate p-benzoquinone. Format: biochemical, Penicillium steckii. From the text: (§4) steady-state kinetics, NADPH consumption, Michaelis-Menten fit on PsOYE6
This is another data set of the same source.

Substrate in series [12]: O=C1C=CC(=O)C=C1
The series is described as above. The class given is biochemical, Penicillium steckii. The conditions noted are these: co-substrate NADPH.
Description: as §4
This is another data set of the same source.

Substrate in series [13]: NC(=O)C1=CN([C@@H]2O[C@H](COP(=O)(O)OP(=O)(O)OC[C@H]3O[C@@H](n4cnc5c(N)ncnc54)[C@H](OP(=O)(O)O)[C@@H]3O)[C@@H](O)[C@H]2O)C=CC1
The series is described as above. The class given is biochemical, Penicillium steckii. The following applies: co-substrate p-benzoquinone. The source says:
(§5) steady-state kinetics, NADPH consumption, Michaelis-Menten fit on PsOYE3
The source holds these as a separate data set.

Substrate in series [14]: O=C1C=CC(=O)C=C1
The series is described as above. Format: biochemical, Penicillium steckii. The following applies: co-substrate NADPH.
Description: as §5
The source holds these as a separate data set.

This note sets out measurements from publication PMC12002099, “Recombinant Production and Characterization of Six Ene‐reductases from Penicillium steckii” (Chembiochem, 2025).

Turning to PsOYE4 (Penicillium steckii), in series [1], the Km worked out at 1100 ± 100 µM, the kcat came out at 28 ± 1 s⁻¹ and the kcat/Km came to 26000 M⁻¹ s⁻¹.

As to “PsOYE2, Class III OYE-type ene-reductase from Penicillium steckii (enzyme)”, the stoichiometry N in series [2], in series [3] and in series [4] was 2 throughout.

B1: PsOYE1 (Penicillium steckii) (protein)
chain: MTIQYISGEESGLFRPLTISNGSLTLRHRIIHAPLTRNRGVPANPISTPENPNRIWVPGDLIAEYYGQRATEGGLLISEGIPPSLESNGMPGVPGLFTPEQANGWKKVVDAVHAKGGFIFCQLWHAGRATIPQMTGSPAVCPSASVWDSPKECYSHPPVGSTEPVPYANHPPIELSVPHIKQTIQDYCNAAKTAMEIGFDGVEIHGGNGYLPEQFLSSNINKRTDDYGGSPEKRCKFVFELMDEVAKTIGEQNLSIRLSPFGLFNQARGEQRLETWTHLCEGLKKAHPALSYVSFVEPRFEQIFSEEEKDTFLQSWGLKDVTLDRFRKIFGETPFFSAGGFDDKNSWNIVESGKYDGLLFGRYFISNPDLVHRLAKGLPLAPYDRTRFYGPFEDNVFHYTDYPTIDKQ
As to B1, in [5], the Km was found to be 300 ± 100 µM, the kcat is 63 ± 8 s⁻¹ and the kcat/Km was found to be 200000 M⁻¹ s⁻¹. Besides, in series [6], the Km was determined as 700 ± 100 µM, the kcat stood at 23.4 ± 1 s⁻¹ and the kcat/Km is 33000 M⁻¹ s⁻¹.

B2: PsOYE5 (Penicillium steckii) (protein)
chain: MSSSAATRFECADVDPSVLGQPLQFTFSGRSAPNRFLKGAMSERLASFSYSDLSARGIPSPTLIQAYKGWGESQIGINLTGNVMIDPGHLEAAGNPVIPRNAEFSGERFERFKELATAGKENGMLIIAQVGHPGRQTPQYLQPNPISASDVQVQGEPMGMKFAQPRAATHEDIANIIDGFAHAAEYLDKAGFDGIELHGAHGYLLSQFLSSATNLRTDQYGGDLKNRMRLILEVRDEIAKRVRKDFVVGIKINSVEFQDKGFQPDDAKELCRALEEHAFDFVELSGGTYEKSPFAEQKRPSTIERESLFLDFARLIVPGLTKTKTYVTGGFKTVEAMVKALETVDGVGLGRPLCQEPNLCAHILSGKVKGAIDQKIDMYNFGATAGAAGVQIQQMGNHLQPIDLSQEENVGKLFAALGPWLAARQKDVELYRSPAVADYVVPYSKTSML
Regarding B2, in series [7], the Km came to 500 ± 200 µM, the kcat came out at 70 ± 14 s⁻¹ and the kcat/Km amounted to 150000 M⁻¹ s⁻¹. For the same molecule, in series [8], the Km was 900 ± 100 µM, the kcat amounted to 23.2 ± 0.9 s⁻¹ and the kcat/Km is 26000 M⁻¹ s⁻¹.

B3: PsOYE2 (Penicillium steckii) (protein)
chain: MTWPDVPIAAAPGISYFTPAQSPPAGTARNPQTSGKAIPKLFQPLTIRGHTFQNRLGVAPMCQYSADDGHLTPWHMAHYGGIAQRGPGMIIIEATGVVPEGRITPGCVGLWKDSQIAPLKQVVEFAHSQGQKIGIQLAHAGRKASTVPPWLGGVTATNAVGGWTENVKGPSAIPFAEGEIVPKAMTKEDIEEVKTAWVAAVERAVAAGVDFIEIHNAHGYLLSSFLSPSSNQRTDDYGGSFENRIRLSLEISQLTRDTVGPNMPVFLRVSATDWLEKSMPEEKGWKLEDTVEFSRALAAQGAIDLIDISTGGVHAAQKVTSGVGFQVPFAKAVKEAVGQKMLVSAVGTINSGNLAEKILNEDDVDVILVGRAFQRDSGLAWAFAKDLDVEIAMAGQIRWGFTSFRNASEYIQPNSMKASIFD
Regarding B3, in [9], the Km came to 500 ± 100 µM, the catalytic constant (kcat) is 70 ± 10 s⁻¹ and the kcat/Km is 140000 M⁻¹ s⁻¹. For the same molecule, the Km in series [10] amounted to 2 ± 1 µM.

B4: PsOYE6 (Penicillium steckii) (protein)
chain: MSSKLFNPMQVGRMQLSTRLAMAPMTRFRVDDDHNPLPIVKDYYAQRGSIPGTLLITEATIISPQAGGYKNVPGIYTDSQIAAWKEITDAVHAKGSYIYLQLWALGRVADPNYLRELGNYDLVSASDIPAGEGAPTPRPLSESDIQSFVKDYAQAAKNAVAAGFDGVEIHAANGYLIDQFIQDNSNQRNDSYGGSVENRARFALEVTQAVVDAIGADRTGIRYSPFSTFQGMRMADPIPQFSYLAKETAKFKLAFTHLVEPRIAGNADVEETPDELEFFLKEYGNATPVIIAGGYKAESAIQAVDEKYKEFDTVIGIGRPWTSNPDLPFRIKANVPLVPYDRDTFYNPKDPKGYIDWAFSPEFKATQVGA
B4: in series [11], the Km is 300 ± 100 µM, the kcat stood at 53 ± 7 s⁻¹ and the kcat/Km was 170000 M⁻¹ s⁻¹. Further, in series [12], the Michaelis-Menten constant (Km) worked out at 1100 ± 100 µM, the kcat was 25.5 ± 0.9 s⁻¹ and the kcat/Km is 23000 M⁻¹ s⁻¹.

B5: PsOYE3 (Penicillium steckii) (protein)
chain: MAQSNHPDIANKPAEGISYYTPAQVPPAGSAAIPQSDGAQPPKLFTPFQVRGVTFHNRIGLSPLCQYSADDGHMTDWHMAHLGGIAQRGPGFLMVEATAVQANGRITPQDHGLWKDSQIEPLRRVVEFIHSQNQVIGVQLAHAGRKASTVAPWLSSADTATEAVGGWPENVKGPSDIPFHDKFPVPKALTLNEIEQFKQDWVSALKRAVKAGADFVEIHNAHGYLLMSFLSPASNKRTDQYGGSFENRIRLTMEIAQLTRDNIPKDMPVFLRVSATDWLEEAMPNEPSWRIEDTVQLAKALADSGNIDVLDVSSGGNHRAQHIHAKAAFQAPFAIEVKKAVGDRLQVGSVGMIDSAQLASSLLENDGLDFVLVGRGFQKNPGLVWAWAEELDVEISMANQIRWGFSSRGGGVYLKKRHGKM
Take B5: in series [13], the Km is 200 ± 0 µM, the kcat was 64 ± 4 s⁻¹ and the kcat/Km was determined as 350000 M⁻¹ s⁻¹. For the same molecule, in series [14], the Km was determined as 8 ± 1 µM, the kcat is 19.6 ± 1.3 s⁻¹ and the kcat/Km stood at 2.45e+06 M⁻¹ s⁻¹.
